According to PMC6472344, “Self-organization of Plk4 regulates symmetry breaking in centriole duplication” (Nature Communications, 2019):

What was measured:
[1] = molecular target: the molecule itself; assay: co-sedimentation; spin-down assay: 500 nM GST-Plk4(Kinase + L1)-His6 incubated at 30 °C for 1 h in kinase buffer (20 mM Tris pH 7.5, 300 or 500 mM NaCl, 30 μM ATP, 5 mM MgCl2, 1 mM β-mercaptoethanol), GST cut off with PreScission protease at 4 °C overnight, centrifuged at 21,500 x g for 10 min; supernatant and pellet by SDS-PAGE and CBB staining
[2] = molecular target: the molecule itself; assay: Proteostat aggregation assay (dye fluorescence); 300 nM GST-Plk4 (Kinase + L1)-His6 in 20 mM Tris pH 7.5, 300 mM NaCl, 1 mM β-mercaptoethanol, 0.1 mM MnCl2, 37 °C for 1 h with or without lambda phosphatase; fluorescence normalised to the WT

Protein | binding result [1] | binding result [2]
Plk4 (Kinase + L1)-His6, kinase-dead (D154A), after GST-tag cleavage (domain or fragment, human, UniProt O00444 1-585, looked up, human Polo-like kinase 4 (Plk4), kinase domain and Linker 1, residues 1-585, kinase-dead; also called KD mutant; KD; source: E. coli BL21 gold (DE3), purified (glutathione sepharose, Ni-agarose); GST cut off with PreScission protease; not shown: GST, N-terminal, cleaved; His6, C-terminal, kept) MATCIGEKIEDFKVGNLLGKGSFAGVYRAESIHTGLEVAIKMIDKKAMYKAGMVQRVQNEVKIHCQLKHPSILELYNYFEDSNYVYLVLEMCHNGEMNRYLKNRVKPFSENEARHFMHQIITGMLYLHSHGILHRDLTLSNLLLTRNMNIKIAAFGLATQLKMPHEKHYTLCGTPNYISPEIATRSAHGLESDVWSLGCMFYTLLIGRPPFDTDTVKNTLNKVVLADYEMPSFLSIEAKDLIHQLLRRNPADRLSLSSVLDHPFMSRNSSTKSKDLGTVEDSIDSGHATISTAITASSSTSISGSLFDKRRLLIGQPLPNKMTVFPKNKSSTDFSSSGDGNSFYTQWGNQETSNSGRGRVIQDAEERPHSRYLRRAYSSDRSGTSNSQSQAKTYTMERCHSAEMLSVSKRSGGGENEERYSPTDNNANIFNFFKEKTSSSSGSFERPDNNQALSNHLCPGKTPFPFADPTPQTETVQQWFGNLQINAHLRKTTEYDSISPNRDFQGHPDLQKDTSKNAWTDTKVKKNSDASDNAHSVKQQNTMKYMTALHSKPEIIQQECVFGSDPLSEQSKTRGMEPPWGYQNR | binds | –
GST-Plk4 (Kinase + L1)-His6, wild type, dephosphorylated with lambda phosphatase (domain or fragment, human, UniProt O00444 1-585, looked up, human Polo-like kinase 4 (Plk4), kinase domain and Linker 1, residues 1-585; The same construct as m5 after removal of its autophosphorylation by λPP; also called λPP-treated WT Plk4 fragments; source: E. coli BL21 gold (DE3), purified (glutathione sepharose, eluted with glutathione; Ni-agarose); incubated with lambda phosphatase; not shown: GST, N-terminal, kept; His6, C-terminal, kept) MATCIGEKIEDFKVGNLLGKGSFAGVYRAESIHTGLEVAIKMIDKKAMYKAGMVQRVQNEVKIHCQLKHPSILELYNYFEDSNYVYLVLEMCHNGEMNRYLKNRVKPFSENEARHFMHQIITGMLYLHSHGILHRDLTLSNLLLTRNMNIKIADFGLATQLKMPHEKHYTLCGTPNYISPEIATRSAHGLESDVWSLGCMFYTLLIGRPPFDTDTVKNTLNKVVLADYEMPSFLSIEAKDLIHQLLRRNPADRLSLSSVLDHPFMSRNSSTKSKDLGTVEDSIDSGHATISTAITASSSTSISGSLFDKRRLLIGQPLPNKMTVFPKNKSSTDFSSSGDGNSFYTQWGNQETSNSGRGRVIQDAEERPHSRYLRRAYSSDRSGTSNSQSQAKTYTMERCHSAEMLSVSKRSGGGENEERYSPTDNNANIFNFFKEKTSSSSGSFERPDNNQALSNHLCPGKTPFPFADPTPQTETVQQWFGNLQINAHLRKTTEYDSISPNRDFQGHPDLQKDTSKNAWTDTKVKKNSDASDNAHSVKQQNTMKYMTALHSKPEIIQQECVFGSDPLSEQSKTRGMEPPWGYQNR | – | binds
GST-Plk4 (Kinase + L1)-His6, kinase-dead (D154A) (domain or fragment, human, UniProt O00444 1-585, looked up, human Polo-like kinase 4 (Plk4), kinase domain and Linker 1, residues 1-585, kinase-dead; also called KD; source: E. coli BL21 gold (DE3), purified (glutathione sepharose, eluted with glutathione; Ni-agarose); not shown: GST, N-terminal, kept; His6, C-terminal, kept) MATCIGEKIEDFKVGNLLGKGSFAGVYRAESIHTGLEVAIKMIDKKAMYKAGMVQRVQNEVKIHCQLKHPSILELYNYFEDSNYVYLVLEMCHNGEMNRYLKNRVKPFSENEARHFMHQIITGMLYLHSHGILHRDLTLSNLLLTRNMNIKIAAFGLATQLKMPHEKHYTLCGTPNYISPEIATRSAHGLESDVWSLGCMFYTLLIGRPPFDTDTVKNTLNKVVLADYEMPSFLSIEAKDLIHQLLRRNPADRLSLSSVLDHPFMSRNSSTKSKDLGTVEDSIDSGHATISTAITASSSTSISGSLFDKRRLLIGQPLPNKMTVFPKNKSSTDFSSSGDGNSFYTQWGNQETSNSGRGRVIQDAEERPHSRYLRRAYSSDRSGTSNSQSQAKTYTMERCHSAEMLSVSKRSGGGENEERYSPTDNNANIFNFFKEKTSSSSGSFERPDNNQALSNHLCPGKTPFPFADPTPQTETVQQWFGNLQINAHLRKTTEYDSISPNRDFQGHPDLQKDTSKNAWTDTKVKKNSDASDNAHSVKQQNTMKYMTALHSKPEIIQQECVFGSDPLSEQSKTRGMEPPWGYQNR | – | binds
